The values that follow come from patent publication US20020132769A1.

The target in the experiment is fiber on the vector capsid of the adenoviral vector Av3GFP (adenovirus, serotype not stated). The experiment can be described thus: cell-based or functional assay.

On to “trimerized sCAR (sCAR followed by a glycine/serine linker, the isoleucine variant GCN4 trimerization domain, and a 6 His Tag; plasmid pGStriCARb) (receptor)”, for which the % GFP Positive HepG2 cells, Av3GFP + 5 µg trimeric sCAR (Av3GFP alone: 98) came out at 43%; the % GFP Positive HepG2 cells, Av3GFP + 10 µg trimeric sCAR (Av3GFP alone: 98) was determined as 32%; the % GFP Positive HepG2 cells, Av3GFP + 20 µg trimeric sCAR (Av3GFP alone: 98) turned out to be 32%.
